In data set [1] the test system is HeLa Kyoto. The data set can be described thus: melting temperature (median over replicates), in situ; higher = more thermally stable.
The test system of data set [2] is HeLa Kyoto. The data set can be described thus: solubility in G1/S (NP-40 vs SDS abundance) (log2 ratio); higher = more soluble. The following applies: cell cycle stage: G1/S.
Data set [3] concerns HeLa Kyoto. Briefly: thermal stability score vs G1/S (z-score of summed log2 fold changes over temperatures); higher = more thermally stable than in G1/S.
Data set [4] has as its system HeLa Kyoto. The data set can be described thus: solubility change mitosis vs G1/S (difference of NP-40 vs SDS log2 ratios) (log2 ratio difference); higher = more soluble in mitosis.
The mark [5] stands for this setting: cell cycle stage: early G1 (4.5 h after nocodazole release).
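For melting temperature (median over replicates), in situ in this document: HeLa Kyoto cells synchronized by double thymidine or nocodazole block, proteins quantified by TMT10plex mass spectrometry, three independent biological replicates.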
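For solubility change mitosis vs G1/S (difference of NP-40 vs SDS log2 ratios) in this document: synchronized HeLa Kyoto cells (double thymidine block for G1/S, nocodazole release for mitosis), protein amounts in NP-40 versus SDS lysates quantified by mass spectrometry, three biological replicates.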
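For solubility in G1/S (NP-40 vs SDS abundance) in this document: HeLa Kyoto cells arrested at G1/S by double thymidine block, proteins quantified by TMT10plex mass spectrometry in mild NP-40 versus SDS extracts, three biological replicates.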
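For thermal stability score vs G1/S (z-score of summed log2 fold changes over temperatures) in this document: synchronized HeLa Kyoto cells, proteins quantified by TMT10plex mass spectrometry, three biological replicates, mitosis taken 0.5 h after nocodazole release, G1/S directly after double thymidine block.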

For “MAETAAGVGRFKTNYAVERKIEPFYKGGKAQLDQTGQHLFCVCGTRVNILEVASGAVLRSLEQEDQEDITAFDLSPDNEVLVTASRALLLAQWAWQEGSVTRLWKAIHTAPVATMAFDPTSTLLATGGCDGAVRVWDIVRHYGTHHFRGSPGVVHLVAFHPDPTRLLLFSSATDAAIRVWSLQDRSCLAVLTAHYSAVTSLAFSADGHTMLSSGRDKICIIWDLQSCQATRTVPVFESVEAAVLLPEEPVSQLGVKSPGLYFLTAGDQGTLRVWEAASGQCVYTQAQPPGPGQELTHCTLAHTAGVVLTATADHNLLLYEARSLRLQKQFAGYSEEVLDVRFLGPEDSHVVVASNSPCLKVFELQTSACQILHGHTDIVLALDVFRKGWLFASCAKDQSVRIWRMNKAGQVMCVAQGSGHTHSVGTVCCSRLKESFLVTGSQDCTVKLWPLPKALLSKNTAPDNGPILLQAQTTQRCHDKDINSVAIAPNDKLLATGSQDRTAKLWALPQCQLLGVFSGHRRGLWCVQFSPMDQVLATASADGTIKLWALQDFSCLKTFEGHDASVLKVAFVSRGTQLLSSGSDGLVKLWTIKNNECVRTLDAHEDKVWGLHCSRLDDHALTGASDSRVILWKDVTEAEQAEEQARQEEQVVRQQELDNLLHEKRYLRALGLAISLDRPHTVLTVIQAIRRDPEACEKLEATMLRLRRDQKEALLRFCVTWNTNSRHCHEAQAVLGVLLRREAPEELLAYEGVRAALEALLPYTERHFQRLSRTLQAAAFLDFLWHNMKLPVPAAAPTPWETHKGALP [TBL3]”, the melting temperature in data set [1] (cell cycle stage: G1/S) was determined as 50.6 °C; in data set [1] (cell cycle stage: mitosis), 51.3 °C. In data set [2], the “solubility in G1/S (log2)” value is -0.936. For the same sequence, the values for the thermal stability score in data set [3] (setting [5]) and in data set [3] (cell cycle stage: mitosis) were 1.58 and -0.746, respectively. In data set [4], the “solubility change mitosis (log2)” value is 0.233.

Take “MAETEERSLDNFFAKRDKKKKKERSNRAASAAGAAGSAGGSSGAAGAAGGGAGAGTRPGDGGTASAGAAGPGAATKAVTKDEDEWKELEQKEVDYSGLRVQAMQISSEKEEDDNEKRQDPGDNWEEGGGGGGGMEKSSGPWNKTAPVQAPPAPVIVTETPEPAMTSGVYRPPGARLTTTRKTPQGPPEIYSDTQFPSLQSTAKHVESRKDKEMEKSFEVVRHKNRGRDEVSKNQALKLQLDNQYAVLENQKSSHSQYN [CDV3]”: the melting temperature in data set [1] (cell cycle stage: G1/S) was 57.2 °C; in data set [1] (cell cycle stage: mitosis), 53.4 °C. The “solubility in G1/S (log2)” value in data set [2] was -0.0527. For the same sequence, the figures for the thermal stability score in data set [3] (setting [5]) and in data set [3] (cell cycle stage: mitosis) were -2.3 and -4.45, respectively. In data set [4], the “solubility change mitosis (log2)” value is 0.0994.

On to “MAEVKVKVQPPDADPVEIENRIIELCHQFPHGITDQVIQNEMPHIEAQQRAVAINRLLSMGQLDLLRSNTGLLYRIKDSQNAGKMKGSDNQEKLVYQIIEDAGNKGIWSRDIRYKSNLPLTEINKILKNLESKKLIKAVKSVAASKKKVYMLYNLQPDRSVTGGAWYSDQDFESEFVEVLNQQCFKFLQSKAETARESKQNPMIQRNSSFASSHEVWKYICELGISKVELSMEDIETILNTLIYDGKVEMTIIAAKEGTVGSVDGHMKLYRAVNPIIPPTGLVRAPCGLCPVFDDCHEGGEISPSNCIYMTEWLEF [POLR3F]”, for which the melting temperature in data set [1] (cell cycle stage: G1/S) was determined as 52.4 °C; in data set [1] (cell cycle stage: mitosis), 52.7 °C. The “solubility in G1/S (log2)” value in data set [2] was 0.528. The thermal stability score in data set [3] (setting [5]) was -0.67; in data set [3] (cell cycle stage: mitosis), -1.78. Also, the “solubility change mitosis (log2)” value in data set [4] is -0.0255.

As to “MAFAETYPAASSLPNGDCGRPRARPGGNRVTVVLGAQWGDEGKGKVVDLLAQDADIVCRCQGGNNAGHTVVVDSVEYDFHLLPSGIINPNVTAFIGNGVVIHLPGLFEEAEKNVQKGKGLEGWEKRLIISDRAHIVFDFHQAADGIQEQQRQEQAGKNLGTTKKGIGPVYSSKAARSGLRMCDLVSDFDGFSERFKVLANQYKSIYPTLEIDIEGELQKLKGYMEKIKPMVRDGVYFLYEALHGPPKKILVEGANAALLDIDFGTYPFVTSSNCTVGGVCTGLGMPPQNVGEVYGVVKAYTTRVGIGAFPTEQDNEIGELLQTRGREFGVTTGRKRRCGWLDLVLLKYAHMINGFTALALTKLDILDMFTEIKVGVAYKLDGEIIPHIPANQEVLNKVEVQYKTLPGWNTDISNARAFKELPVNAQNYVRFIEDELQIPVKWIGVGKSRESMIQLF [ADSS]”, the values for the melting temperature in data set [1] (cell cycle stage: G1/S) and in data set [1] (cell cycle stage: mitosis) were 57.5 °C and 56.5 °C, respectively. In data set [2], the “solubility in G1/S (log2)” value is 0.288. The figures for the thermal stability score in data set [3] (setting [5]) and in data set [3] (cell cycle stage: mitosis) were -2.13 and -2.82, respectively. Further, the “solubility change mitosis (log2)” value in data set [4] is -0.0978.

Values taken from the supplement of paper PMC5998384.
